From paper PMC10397247
Each block holds one binder with its values, some of them ahead of it.

Legend:
4H2907-AA = target: T1, 4H2907-AA; test: two-hybrid library CCmax; conditions: mean of both orientations;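 note: natural log of median RNA to DNA barcode read ratio; higher means stronger binding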
T1 chain: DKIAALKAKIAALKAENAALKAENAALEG

4H1351-AA = target: T2, 4H1351-AA; test: two-hybrid library CCmax;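 note: natural log of median RNA to DNA barcode read ratio; higher means stronger binding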
T2 chain: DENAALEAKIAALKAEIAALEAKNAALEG

4H3718-AA = target: T3, 4H3718-AA; test: two-hybrid library CCmax; conditions: mean of both orientations;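 note: natural log of median RNA to DNA barcode read ratio; higher means stronger binding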
T3 chain: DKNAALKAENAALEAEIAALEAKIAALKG

4H982-AA = target: T4, 4H982-AA; test: two-hybrid library CCmax; conditions: mean of both orientations;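 note: natural log of median RNA to DNA barcode read ratio; higher means stronger binding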
T4 chain: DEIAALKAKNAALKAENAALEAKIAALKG

4H3378-AA = target: T5, 4H3378-AA; test: two-hybrid library CCmax;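 note: natural log of median RNA to DNA barcode read ratio; higher means stronger binding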
T5 chain: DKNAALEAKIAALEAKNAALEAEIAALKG

4H1874-AA = target: T6, 4H1874-AA; test: two-hybrid library CCmax; conditions: mean of both orientations;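 note: natural log of median RNA to DNA barcode read ratio; higher means stronger binding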
T6 chain: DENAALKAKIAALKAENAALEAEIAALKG

4H1594-AA = target: T7, 4H1594-AA; test: two-hybrid library CCmax; conditions: mean of both orientations
T7 chain: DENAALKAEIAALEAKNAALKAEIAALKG

4H3865-AA = target: T8, 4H3865-AA; test: two-hybrid library CCmax; conditions: mean of both orientations
T8 chain: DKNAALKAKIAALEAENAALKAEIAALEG

4H2553-AA = target: T9, 4H2553-AA; test: two-hybrid library CCmax; conditions: mean of both orientations
T9 chain: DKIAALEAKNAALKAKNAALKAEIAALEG

4H3631-AA = target: T10, 4H3631-AA; test: two-hybrid library CCmax
T10 chain: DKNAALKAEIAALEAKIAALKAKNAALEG

4H3162-AA = target: T11, 4H3162-AA; test: two-hybrid library CCmax; conditions: mean of both orientations
T11 chain: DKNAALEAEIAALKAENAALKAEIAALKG

4H32-AA = target: T12, 4H32-AA; test: two-hybrid library CCmax; conditions: mean of both orientations
T12 chain: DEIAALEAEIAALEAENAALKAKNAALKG

4H1401-AA = target: T13, 4H1401-AA; test: two-hybrid library CCmax; conditions: mean of both orientations
T13 chain: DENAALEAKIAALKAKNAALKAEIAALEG

4H2198-AA = target: T14, 4H2198-AA; test: two-hybrid library CCmax; conditions: mean of both orientations
T14 chain: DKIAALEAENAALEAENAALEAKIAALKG

4H697-AA = target: T15, 4H697-AA; test: two-hybrid library CCmax; conditions: mean of both orientations
T15 chain: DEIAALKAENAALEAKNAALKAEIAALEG

4H3413-AA = target: T16, 4H3413-AA; test: two-hybrid library CCmax; conditions: mean of both orientations
T16 chain: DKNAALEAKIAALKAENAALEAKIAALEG

4H2620-AA = target: T17, 4H2620-AA; test: two-hybrid library CCmax; conditions: mean of both orientations
T17 chain: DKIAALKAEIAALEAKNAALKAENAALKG

4H384-AA = target: T18, 4H384-AA; test: two-hybrid library CCmax; conditions: mean of both orientations
T18 chain: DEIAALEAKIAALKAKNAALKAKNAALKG

4H2611-AA = target: T19, 4H2611-AA; test: two-hybrid library CCmax; conditions: mean of both orientations
T19 chain: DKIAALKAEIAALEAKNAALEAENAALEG

4H3588-AA = target: T20, 4H3588-AA; test: two-hybrid library CCmax; conditions: mean of both orientations
T20 chain: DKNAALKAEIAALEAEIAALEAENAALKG

4H3606-AA = target: T21, 4H3606-AA; test: two-hybrid library CCmax; conditions: mean of both orientations
T21 chain: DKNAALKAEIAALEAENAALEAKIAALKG

4H1845-AA = target: T22, 4H1845-AA; test: two-hybrid library CCmax; conditions: mean of both orientations
T22 chain: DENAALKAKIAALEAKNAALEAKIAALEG

4H2648-AA = target: T23, 4H2648-AA; test: two-hybrid library CCmax; conditions: mean of both orientations
T23 chain: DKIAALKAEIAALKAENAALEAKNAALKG

4H1629-AA = target: T24, 4H1629-AA; test: two-hybrid library CCmax; conditions: mean of both orientations
T24 chain: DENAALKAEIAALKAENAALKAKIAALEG

4H3697-AA = target: T25, 4H3697-AA; test: two-hybrid library CCmax; conditions: mean of both orientations
T25 chain: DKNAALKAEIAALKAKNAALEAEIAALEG

4H3133-AA = target: T26, 4H3133-AA; test: two-hybrid library CCmax; conditions: mean of both orientations
T26 chain: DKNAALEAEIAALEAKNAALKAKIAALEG

4H340-AA = target: T27, 4H340-AA; test: two-hybrid library CCmax; conditions: mean of both orientations
T27 chain: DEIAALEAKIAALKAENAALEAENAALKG

4H1513-AA = target: T28, 4H1513-AA; test: two-hybrid library CCmax; conditions: mean of both orientations
T28 chain: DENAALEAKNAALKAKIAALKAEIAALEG

4H3056-AA = target: T29, 4H3056-AA; test: two-hybrid library CCmax; conditions: mean of both orientations
T29 chain: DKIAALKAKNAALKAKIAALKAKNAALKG

4H1388-AA = target: T30, 4H1388-AA; test: two-hybrid library CCmax; conditions: mean of both orientations
T30 chain: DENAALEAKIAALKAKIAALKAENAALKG

4H3855-bN = target: T31, 4H3855-bN; test: two-hybrid library CCNG1
T31 chain: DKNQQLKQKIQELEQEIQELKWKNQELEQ

4H3277-bA = target: T32, 4H3277-bA; test: two-hybrid library CCNG1
T32 chain: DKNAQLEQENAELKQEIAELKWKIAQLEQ

4H3057-bA = target: T33, 4H3057-bA; test: two-hybrid library CCNG1
T33 chain: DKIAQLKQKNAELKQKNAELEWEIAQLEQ

4H492-bA = target: T34, 4H492-bA; test: two-hybrid library CCNG1
T34 chain: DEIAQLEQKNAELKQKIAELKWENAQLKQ

4H348-bA = target: T35, 4H348-bA; test: two-hybrid library CCNG1
T35 chain: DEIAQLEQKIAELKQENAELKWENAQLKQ

4H477-bA = target: T36, 4H477-bA; test: two-hybrid library CCNG1
T36 chain: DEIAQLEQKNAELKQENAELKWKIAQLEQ

4H319-bA = target: T37, 4H319-bA; test: two-hybrid library CCNG1
T37 chain: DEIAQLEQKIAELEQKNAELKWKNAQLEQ

O11-bA = target: T38, O11-bA; test: two-hybrid library CCNG1
T38 chain: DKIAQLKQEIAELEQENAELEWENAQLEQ

4H40-bA = target: T39, 4H40-bA; test: two-hybrid library CCNG1
T39 chain: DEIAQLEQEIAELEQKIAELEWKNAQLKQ

4H741-bA = target: T40, 4H741-bA; test: two-hybrid library CCNG1
T40 chain: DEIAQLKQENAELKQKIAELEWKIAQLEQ

4H2915-bA = target: T41, 4H2915-bA; test: two-hybrid library CCNG1
T41 chain: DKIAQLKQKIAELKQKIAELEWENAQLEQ

4H2585-bN = target: T42, 4H2585-bN; test: two-hybrid library CCNG1
T42 chain: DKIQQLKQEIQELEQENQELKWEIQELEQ

4H3381-bN = target: T43, 4H3381-bN; test: two-hybrid library CCNG1
T43 chain: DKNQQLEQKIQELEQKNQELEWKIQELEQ

4H730-bN = target: T44, 4H730-bN; test: two-hybrid library CCNG1
T44 chain: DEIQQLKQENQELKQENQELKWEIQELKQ

4H932-bN = target: T45, 4H932-bN; test: two-hybrid library CCNG1
T45 chain: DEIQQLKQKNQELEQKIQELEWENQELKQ

4H349-bN = target: T46, 4H349-bN; test: two-hybrid library CCNG1
T46 chain: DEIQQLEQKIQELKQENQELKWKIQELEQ

4H2518-bN = target: T47, 4H2518-bN; test: two-hybrid library CCNG1
T47 chain: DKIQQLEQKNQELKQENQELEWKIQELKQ

4H796-bN = target: T48, 4H796-bN; test: two-hybrid library CCNG1
T48 chain: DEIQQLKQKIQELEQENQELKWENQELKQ

4H2760-bN = target: T49, 4H2760-bN; test: two-hybrid library CCNG1
T49 chain: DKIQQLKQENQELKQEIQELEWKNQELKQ

4H2859-bN = target: T50, 4H2859-bN; test: two-hybrid library CCNG1
T50 chain: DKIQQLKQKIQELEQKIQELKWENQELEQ

4H56-bN = target: T51, 4H56-bN; test: two-hybrid library CCNG1
T51 chain: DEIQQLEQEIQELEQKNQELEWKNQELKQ

4H949-bN = target: T52, 4H949-bN; test: two-hybrid library CCNG1
T52 chain: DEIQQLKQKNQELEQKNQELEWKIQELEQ

4H264-bN = target: T53, 4H264-bN; test: two-hybrid library CCNG1
T53 chain: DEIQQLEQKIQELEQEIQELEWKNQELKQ

4H3041-bN = target: T54, 4H3041-bN; test: two-hybrid library CCNG1
T54 chain: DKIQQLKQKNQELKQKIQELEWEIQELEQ

4H3297-bN = target: T55, 4H3297-bN; test: two-hybrid library CCNG1
T55 chain: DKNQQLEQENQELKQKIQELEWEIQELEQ

4H2931-bN = target: T56, 4H2931-bN; test: two-hybrid library CCNG1
T56 chain: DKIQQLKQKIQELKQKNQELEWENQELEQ

4H3364-bN = target: T57, 4H3364-bN; test: two-hybrid library CCNG1
T57 chain: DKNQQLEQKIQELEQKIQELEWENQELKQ

4H2253-bN = target: T58, 4H2253-bN; test: two-hybrid library CCNG1
T58 chain: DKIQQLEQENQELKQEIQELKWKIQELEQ

4H2444-bN = target: T59, 4H2444-bN; test: two-hybrid library CCNG1
T59 chain: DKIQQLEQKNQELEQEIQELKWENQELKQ

4H235-bN = target: T60, 4H235-bN; test: two-hybrid library CCNG1
T60 chain: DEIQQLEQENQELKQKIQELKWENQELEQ

interaction score (4H2907-AA): -1.52 | interaction score (4H1351-AA): 0.323 | interaction score (4H3718-AA): 0.664 | interaction score (4H982-AA): -0.516 | interaction score (4H3378-AA): -1.5 | interaction score (4H1874-AA): -1.67 | interaction score (4H1594-AA): -1.24 | interaction score (4H3865-AA): -1.73 | interaction score (4H2553-AA): -1.95 | interaction score (4H3631-AA): 2.1 | interaction score (4H3162-AA): -1.42 | interaction score (4H32-AA): -0.591 | interaction score (4H1401-AA): -1.25 | interaction score (4H2198-AA): -1.4 | interaction score (4H697-AA): -1.65 | interaction score (4H3413-AA): -1.34 | interaction score (4H2620-AA): -0.325 | interaction score (4H384-AA): 0.76 | interaction score (4H2611-AA): -0.748 | interaction score (4H3588-AA): 0.934 | interaction score (4H3606-AA): -1.64 | interaction score (4H1845-AA): -1.17 | interaction score (4H2648-AA): -0.804 | interaction score (4H1629-AA): -1.62 | interaction score (4H3697-AA): -1.37 | interaction score (4H3133-AA): -0.555 | interaction score (4H340-AA): -1 | interaction score (4H1513-AA): -0.583 | interaction score (4H3056-AA): -1.54 | interaction score (4H1388-AA): -0.254
B1: 4H1351-AA (peptide)
chain: DENAALEAKIAALKAEIAALEAKNAALEG

interaction score (4H3855-bN): 0.188 | interaction score (4H3277-bA): -1.17 | interaction score (4H3057-bA): -0.856 | interaction score (4H492-bA): -1.03 | interaction score (4H348-bA): -1.42 | interaction score (4H477-bA): -1.05 | interaction score (4H319-bA): 1.12 | interaction score (O11-bA): 0.236 | interaction score (4H40-bA): 1.35 | interaction score (4H741-bA): -0.66 | interaction score (4H2915-bA): 0.656
B2: 4H2915-bA (peptide)
chain: DKIAQLKQKIAELKQKIAELEWENAQLEQ

interaction score (4H2585-bN): -1.66 | interaction score (4H3381-bN): -0.558 | interaction score (4H730-bN): -0.523 | interaction score (4H932-bN): -0.7 | interaction score (4H349-bN): -0.821 | interaction score (4H2518-bN): 0.436 | interaction score (4H796-bN): -1.07 | interaction score (4H2760-bN): 0.286 | interaction score (4H2859-bN): -0.113 | interaction score (4H56-bN): -0.248 | interaction score (4H949-bN): -0.506 | interaction score (4H264-bN): 0.574 | interaction score (4H3041-bN): -0.989 | interaction score (4H3297-bN): 0.232 | interaction score (4H2931-bN): -0.437 | interaction score (4H3364-bN): -1.32 | interaction score (4H2253-bN): 1.16 | interaction score (4H2444-bN): 0.131 | interaction score (4H235-bN): -0.204
B3: 4H2253-bN (peptide)
chain: DKIQQLEQENQELKQEIQELKWKIQELEQ
